“Also recorded” adds a separate entry of the source. Square brackets hold non-standard residues; d marks the D form. Peptide text beside a SMILES is read from it. * marks the point of attachment. Dolaproine = CO[C@@H]([C@@H]1CCCN1)[C@@H](C)C(=O)O; Dil = CC[C@H](C)[C@H](NC)[C@@H](CC(=O)O)OC; X1 = C[C@@H](N*)[C@@H](O)c1ccccc1; NMeV = CN[C@H](C(=O)O)C(C)C
Columns and labels:
[1] = system: BT-474/L1.9 human breast cancer; test: Herceptin- and Lapatinib-resistant BT-474/L1.9 nude mouse subcutaneous transplantation tumor model; format: in vivo
Protocol: (§1) SPF-level BALB/c nude mice were inoculated subcutaneously with a certain amount of BT-474/L1.9 tumor cells, and after the tumor growing to 100-200 mm3, the animals were randomly grouped. […] The tumor volume was measured 2 times a week. […] The data were recorded. The tumor volume and the tumor-inhibition rate of each tumor-bearing mouse were calculated at different observation time points.

[2] = system: NCI-N87 human gastric cancer; test: NCI-N87 human gastric cancer nude mouse subcutaneous transplantation tumor model; format: in vivo; conditions: 200 mg/kg, dosing once per week, for 21 days
Protocol: [Worded in the source for another cell line; this cell line is reported under the same test.] as §1

[3] = Toxicity in SD rat, single intravenous infusion; format: in vivo
Protocol: SPF-level SD rats (the certificate No. is SCXK (jing)2012-0001) purchased from Beijing Vital River Laboratories Animal Technology Co, Ltd. were randomly divided into 7 groups according to gender, in which there were 10 rats in a group with half male and half female. These 7 groups included physiological saline negative control group, 0.48 mg/kg MMAE control group, 40 mg/kg RC48 naked antibody control group and series of RC48-vc-MMAE dose groups, in which the rats were dosed via tail vein infusion, and the experimental observation period was 21 days. The body weights were weighted at D1 (pre-dosing), D8, D15 and D22. After the observation period, the animals were euthanized and performed a general pathological anatomical observation, and the abnormal tissues or organs observed by the general anatomical observation were subjected to a histological examination.

[4] = system: chronic non-Hodgkin's lymphocytoma (NHL); conditions: cited from earlier work
[5] = system: recurrent or refractory Hodgkin's lymphoma; conditions: cited from earlier work
[6] = molecular target: T1, HER2 on BT474 cell surface (Homo sapiens, UniProt P04626); test: Flow cytometry binding curve with HER2 on BT474 cell surface; conditions: BT474 cells, antibody titration, read-out: Binding affinity Kd
T1 construct: HER2 which was endogenously expressed in human breast cancer cells; endogenous in cells; host or cells: BT474 human breast cancer cells
Protocol: (§2) After 2 times of thoroughly washing with 4 ml cold PBS, the antibodies binding with the cell surface were detected by R-PE-coupled goat anti-human IgG Fc specific second antibody (15 μl, 25 μg/mL), and then analyzed by flow cytometer (BD FACSCalibur).

[7] = molecular target: T2, HER2-ECD (Homo sapiens, UniProt P04626); test: ELISA HER2-ECD binding affinity constant of antibodies; conditions: ELISA on coated HER2-ECD; average of 3 independent assays
T2 construct: made in house; host or cells: HEK293
Protocol: HER2-ECD as described above was used as the antigen for immunizing the mouse and monoclonal antibody generation. Immunization, hybridoma cells fusion and primary screen were conducted according to standard procedures (reference: WHO Technical Report Series, No. 822, 1992 Annex 3). Four Balb/c mice (commercially obtained from Shanghai Slac Laboratory Animal Co. Ltd.) were immunized with equal volume of well-blended 0.25 ml HER2-ECD protein (50-100 μg) and 0.25 ml Freund's complete adjuvant (Difco Lab). Two weeks later, the second injection was carried out with Freund's incomplete adjuvant (Difco Lab) in which the amount of antigen was 25-50 μg/0.5 ml/mouse. Three weeks later, the third injection was carried out in which the amount was the same with that in the second injection. Ten days after the third injection the blood was drawn. The mice serum were detected by enzyme-linked immunosorbent assay (ELISA), and the spleens of the two mice with highest anti-HER2 antibody titer in serum were taken, which were then fused with the myeloma cell P3X63Ag8 (ATCC CRL-1580). […] Murine-derived anti-HER2 antibody was detected by the goat F(ab′)2 anti-murine IgG Fc specific second antibody coupled with horse radish peroxidase (Invitrogen Inc.).

[8] = molecular target: HER2 (Homo sapiens, UniProt P04626); test: Antigen binding specificity ELISA; conditions: 20 ng antigen per well
Protocol: (§3) HER2-ECD as described above was used as the antigen for immunizing the mouse and monoclonal antibody generation. Immunization, hybridoma cells fusion and primary screen were conducted according to standard procedures (reference: WHO Technical Report Series, No. 822, 1992 Annex 3). Four Balb/c mice (commercially obtained from Shanghai Slac Laboratory Animal Co. Ltd.) were immunized with equal volume of well-blended 0.25 ml HER2-ECD protein (50-100 μg) and 0.25 ml Freund's complete adjuvant (Difco Lab). Two weeks later, the second injection was carried out with Freund's incomplete adjuvant (Difco Lab) in which the amount of antigen was 25-50 μg/0.5 ml/mouse. Three weeks later, the third injection was carried out in which the amount was the same with that in the second injection. Ten days after the third injection the blood was drawn. The mice serum were detected by enzyme-linked immunosorbent assay (ELISA), and the spleens of the two mice with highest anti-HER2 antibody titer in serum were taken, which were then fused with the myeloma cell P3X63Ag8 (ATCC CRL-1580). The fused cells were diluted onto ten 96-well plates, and the preliminary screen was carried out through ELISA method depending on the binding capacity with HER2-ECD. In a classical ELISA assay, the Nunc Maxisord 96-well plate was coated with HER2-ECD (0.2-1 μg/ml), and then incubated with gradient diluted mouse serum or hybridoma supernatant (100 μL). Murine-derived anti-HER2 antibody was detected by the goat F(ab′)2 anti-murine IgG Fc specific second antibody coupled with horse radish peroxidase (Invitrogen Inc.).

[9] = molecular target: EGFR (Homo sapiens, UniProt P00533); test: Antigen binding specificity ELISA; conditions: 20 ng antigen per well
Protocol: [Worded in the source for another target; used here, by the source, with some conditions changed.] as §3

[10] = molecular target: HER3 (Homo sapiens, UniProt P21860); test: Antigen binding specificity ELISA; conditions: 20 ng antigen per well
Protocol: [Worded in the source for another target; used here, by the source, with some conditions changed.] as §3

[11] = molecular target: HER4 (Homo sapiens, UniProt Q15303); test: Antigen binding specificity ELISA; conditions: 20 ng antigen per well
Protocol: [Worded in the source for another target; used here, by the source, with some conditions changed.] as §3

[12] = system: MDA-MBA468; test: Flow cytometry binding with HER2 negative cells; format: cell-based, human; conditions: 6 μg antibody
Protocol: as §2

[13] = system: BT474 human breast cancer tumor; format: in vivo; conditions: 10 mg/kg, three administrations, 37 days after dosing
Protocol: Five millions of BT474 cells were suspended in PBS, and inoculated to the armpit of BALB/c nude mouse (provided by Shanghai Slac Laboratory Animal Co. Ltd., with the certificate No. 2007000540582 and license No. SCXK(hu)2012-0002). After the tumor was formed, the tumor tissue which grew vigorously was taken and cut into about 1.5 mm^3, and inoculated subcutaneously to the right-side armpit of nude mouse under sterile conditions. The diameter of the nude mouse transplantation tumor was measured by vernier caliper. The animals were grouped randomly until the tumor grew up to 100˜300 mm^3.

[14] = system: HER2+ cells SK-BR-3, BT474; test: Flow cytometry binding with HER2 positive breast cancer cells; format: cell-based, human; conditions: 6 μg antibody, SK-BR-3 and BT474
Protocol: as §2

[15] = system: BT474 human breast cancer transplantation tumor; test: Tumor inhibition of RC48, BT474 human breast cancer transplantation tumor model; format: in vivo, nude mouse; conditions: 10 mg/kg, administered three times
Text: Human breast cancer BT474 nude mouse transplantation tumor model was established by inoculating BT474 cells into nude mouse subcutaneously. After growing continuously in vivo for 3 generations, the tumor tissue which grew vigorously was taken and cut into about 1.5 mm3, and inoculated subcutaneously to right-side armpit of nude mouse (provided by Shanghai Slac Laboratory Animal Co. Ltd., with the certificate No. 2007000540582 and license No. SCXK(hu)2012-0002) under sterile conditions. The diameter of the nude mouse transplantation tumor was measured by vernier caliper. The animals were grouped randomly until the tumor grew up to 100˜300 mm3.

Sequence of HER4 (Q15303 26-1308, species assumed): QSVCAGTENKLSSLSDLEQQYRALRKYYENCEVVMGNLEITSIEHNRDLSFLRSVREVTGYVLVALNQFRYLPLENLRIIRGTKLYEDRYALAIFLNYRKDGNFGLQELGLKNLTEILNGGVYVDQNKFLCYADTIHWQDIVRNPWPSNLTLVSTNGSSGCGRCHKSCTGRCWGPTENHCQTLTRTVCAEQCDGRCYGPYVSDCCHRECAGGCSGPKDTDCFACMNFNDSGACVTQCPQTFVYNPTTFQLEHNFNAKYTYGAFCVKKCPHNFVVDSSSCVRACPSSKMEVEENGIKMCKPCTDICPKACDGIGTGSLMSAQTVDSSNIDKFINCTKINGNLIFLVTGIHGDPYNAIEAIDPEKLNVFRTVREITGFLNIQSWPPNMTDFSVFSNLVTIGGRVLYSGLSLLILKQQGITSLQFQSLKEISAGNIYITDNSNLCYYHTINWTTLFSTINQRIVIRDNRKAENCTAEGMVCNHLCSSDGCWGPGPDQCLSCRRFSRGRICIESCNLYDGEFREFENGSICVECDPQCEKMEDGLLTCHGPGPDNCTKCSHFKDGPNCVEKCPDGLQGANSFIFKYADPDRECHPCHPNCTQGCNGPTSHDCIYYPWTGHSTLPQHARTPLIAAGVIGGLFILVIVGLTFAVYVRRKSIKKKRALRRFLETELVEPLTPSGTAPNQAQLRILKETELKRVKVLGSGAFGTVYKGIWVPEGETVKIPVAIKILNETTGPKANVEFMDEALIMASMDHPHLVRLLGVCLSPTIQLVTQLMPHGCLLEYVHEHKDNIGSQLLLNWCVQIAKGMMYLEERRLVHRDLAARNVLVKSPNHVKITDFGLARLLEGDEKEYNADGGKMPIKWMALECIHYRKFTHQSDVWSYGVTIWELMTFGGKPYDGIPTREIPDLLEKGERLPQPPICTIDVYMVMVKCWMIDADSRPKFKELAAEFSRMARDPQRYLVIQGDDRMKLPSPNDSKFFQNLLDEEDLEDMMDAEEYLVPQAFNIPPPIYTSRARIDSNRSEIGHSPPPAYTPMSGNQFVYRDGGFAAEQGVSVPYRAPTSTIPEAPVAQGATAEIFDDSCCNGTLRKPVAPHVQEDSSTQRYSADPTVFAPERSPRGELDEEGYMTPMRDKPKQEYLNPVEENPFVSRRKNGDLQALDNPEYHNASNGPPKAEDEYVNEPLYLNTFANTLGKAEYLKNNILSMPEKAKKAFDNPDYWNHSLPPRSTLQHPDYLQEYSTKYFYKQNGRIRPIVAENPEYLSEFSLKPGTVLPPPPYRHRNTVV

CS(=O)(=O)CCNCc1ccc(-c2ccc3ncnc(Nc4ccc(OCc5cccc(F)c5)c(Cl)c4)c3c2)o1 [Lapatinib]
tumor-inhibition rate ([1]; 200 mg/kg, dosing everyday): 45% | tumor-inhibition rate [2]: 78%

CC[C@H](C)[C@@H]([C@@H](CC(=O)N1CCC[C@H]1[C@H](OC)[C@@H](C)C(=O)N[C@H](C)[C@@H](O)c1ccccc1)OC)N(C)C(=O)[C@@H](NC(=O)[C@@H](NC)C(C)C)C(C)C [MMAE, Monomethyl auristatin E, reference compound] (H-[NMeV]V[Dil][Dolaproine]-X1)
animals found dead during the experiment ([3]; 0.48 mg/kg MMAE control group, single tail vein infusion, 21 days): 9/10

Rituxan: monoclonal antibody drug against lymphocytoma such as NHL
total response rate ([4]; Phase II clinical study, NHL, used alone): 6% | effective rate ([4]; in combination with standard chemotherapy, chronic lymphocytoma): up to 90%

T-DM1
tumor-inhibition rate ([1]; 5 mg/kg, once per week, totally 2 times): 58%

brentuximab vedotin
patients achieving partial response ([5]; Phase II, 102 patients): 40% | overall response rate ([5]; median treatment course 6.7 months): 73% | complete response rate ([5]; median treatment course 20.5 months): 34%

B1: RC48: humanized anti-HER2 antibody RC48, derived from mRC48 antibody by humanized engineering; human IgG1κ (antibody, chains of the INN, looked up, V domains shown)
VH: EVQLVQSGAEVKKPGATVKISCKVSGYTFTDYYIHWVQQAPGKGLEWMGRVNPDHGDSYYNQKFKDKATITADKSTDTAYMELSSLRSEDTAVYFCARNYLFDHWGQGTLVTVSS
VL: DIQMTQSPSSVSASVGDRVTITCKASQDVGTAVAWYQQKPGKAPKLLIYWASIRHTGVPSRFSGSGSGTDFTLTISSLQPEDFATYYCHQFATYTFGGGTKVEIK
Kd [6]: 4 nM | Kd [7]: 0.044 nM | binding capacity with HER2 [8]: strong binding capacity; also recorded: only shows specific binding affinity with HER2 | binding capacity with EGFR [9]: nearly had no binding capacity; also recorded: not with EGFR, HER3 and HER4 | binding capacity with HER3 [10]: nearly had no binding capacity; also recorded: not with EGFR, HER3 and HER4 | binding capacity with HER4 [11]: nearly had no binding capacity; also recorded: not with EGFR, HER3 and HER4 | binding with HER2 negative cells [12]: no binding | tumor volume as % of the control group [13]: 83% | toxicity response symptom ([3]; 40 mg/kg, single intravenous infusion): no evident toxicity response symptom | maximal tolerant dose of rat ([3]; single intravenous infusion): ≥ 40 mg/kg | binding with HER2 positive cells [14]: strong binding; also recorded: higher binding affinity | tumor-inhibitory effect on BT474 tumors [15]: inhibited; also recorded: significantly better tumor-inhibitory effect
